Laboratory results published in paper PMC4638040.

T1: Carboxy-terminus of Hsc70-interacting protein (CHIP), His-tagged, wild type, Q9UNE7
T1 chain: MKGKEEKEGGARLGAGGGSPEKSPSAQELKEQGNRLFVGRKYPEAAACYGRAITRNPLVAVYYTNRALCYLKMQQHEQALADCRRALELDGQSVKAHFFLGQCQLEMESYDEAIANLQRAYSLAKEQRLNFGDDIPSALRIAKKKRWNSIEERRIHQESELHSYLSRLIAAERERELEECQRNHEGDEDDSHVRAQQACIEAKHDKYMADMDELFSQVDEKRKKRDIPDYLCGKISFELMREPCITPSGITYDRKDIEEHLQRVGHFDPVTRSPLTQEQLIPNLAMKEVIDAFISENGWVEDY

T2: Carboxy-terminus of Hsc70-interacting protein (CHIP), untagged, K30A mutant (human), Q9UNE7
T2 chain: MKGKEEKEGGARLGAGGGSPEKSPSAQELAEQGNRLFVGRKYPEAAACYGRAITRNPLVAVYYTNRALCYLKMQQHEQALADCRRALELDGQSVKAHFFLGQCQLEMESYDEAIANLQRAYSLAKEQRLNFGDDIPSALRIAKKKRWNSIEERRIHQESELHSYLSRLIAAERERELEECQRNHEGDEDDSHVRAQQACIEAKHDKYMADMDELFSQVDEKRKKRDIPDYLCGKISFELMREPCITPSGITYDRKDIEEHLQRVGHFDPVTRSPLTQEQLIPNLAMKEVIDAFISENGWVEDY


Columns and labels:
[1] = target: T1, Carboxy-terminus of Hsc70-interacting …; experiment: competition binding assay on microtitre wells (luminometer, anti-CHIP antibody); details: chain shown with the change; signal is His-CHIP wt remaining bound to immobilized GST-IRF-1 in the presence of 5 uM peptide (highest dose); lower signal = more competition by the peptide …; parent: est. 0.05; read off a plot
[2] = target: T2, Carboxy-terminus of Hsc70-interacting …; experiment: SEC + other: dynamic light scattering; purified CHIP-K30A; supplemental Fig. S2C, S2D (not shown); details: remark: other sources report otherwise

response [1] [RLU]	stoichiometry N [2]	Binder
1.2	–	SGSGGAAAEEVD
–	2	Carboxy-terminus of Hsc70-interacting protein (CHIP), untagged, K30A mutant, Q9UNE7 1-303 (enzyme) MKGKEEKEGGARLGAGGGSPEKSPSAQELAEQGNRLFVGRKYPEAAACYGRAITRNPLVAVYYTNRALCYLKMQQHEQALADCRRALELDGQSVKAHFFLGQCQLEMESYDEAIANLQRAYSLAKEQRLNFGDDIPSALRIAKKKRWNSIEERRIHQESELHSYLSRLIAAERERELEECQRNHEGDEDDSHVRAQQACIEAKHDKYMADMDELFSQVDEKRKKRDIPDYLCGKISFELMREPCITPSGITYDRKDIEEHLQRVGHFDPVTRSPLTQEQLIPNLAMKEVIDAFISENGWVEDY
